In patent US7700727B2, “Compositions and kits for detecting pathogen infection” (Biokit, S.A., priority 2003, dated 2010):

What was measured:
lysozyme [1] = target: T1, lysozyme (Homo sapiens, UniProt P61626); assay: Far Western blot lysozyme-protein interaction assay; format: binding; conditions: 1, 5 and 10 μg immobilized lysozyme per lane; washes with 0.05% Tween 20
T1 sequence (P61626 19-148): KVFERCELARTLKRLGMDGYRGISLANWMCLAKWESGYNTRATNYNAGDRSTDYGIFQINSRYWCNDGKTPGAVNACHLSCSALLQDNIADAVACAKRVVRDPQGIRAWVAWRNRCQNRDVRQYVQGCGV
Description: (§1) In order to test this hypothesis, a Far-Western blot lysozyme-protein interaction assay was performed. The assay is summarized in FIG. 5 and comprises generally the following three steps: (1) immobilization of purified lysozyme onto a membrane; (2) probing of the membrane with a ligand likely to bind directly to the lysozyme; and (3) immunodetection of the bound lysozyme-ligand. A detailed experimental procedure is presented below.
(§2) Purified chicken egg white lysozyme and human breast milk lysozyme were purchased from Sigma-Aldrich (Madrid, Spain). Two series of aliquot fractions containing 1 μg, 5 μg, and 10 μg of purified lysozyme and a protein molecular weight marker (SeeBlue Plus II™, Invitrogen SA, Barcelona, Spain) were separated electrophoretically through a 4-12% SDS-PAGE gel using the conditions recommended by the supplier (Invitrogen). […] The presence of lysozyme immobilized onto the PVDF membrane was assessed by staining for 1 minute with Ponceau S stain (Sigma-Aldrich, Madrid, Spain), and then destained by vigorous washing for 5 minutes with desionized water. The membrane was divided in two, each portion containing a protein ladder and three quantities of chicken or human lysozyme (1 μg, 5 μg and 10 μg per lane). […]

chicken lysozyme [2] = target: T2, chicken lysozyme (Gallus gallus, UniProt P00698); assay: as above; format: binding; set-up: Purified chicken egg white lysozyme; purchased Sigma-Aldrich (Madrid, Spain); host or cells: chicken egg white; conditions: 1, 5 and 10 μg immobilized lysozyme per lane; washes with 0.05% Tween 20
T2 sequence (P00698 19-147): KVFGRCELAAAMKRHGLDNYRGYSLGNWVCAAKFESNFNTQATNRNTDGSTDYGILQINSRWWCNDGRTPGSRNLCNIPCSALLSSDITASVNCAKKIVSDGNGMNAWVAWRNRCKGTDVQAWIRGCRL
Description: as §1, §2

lysozyme [3] = target: T1, lysozyme; assay: Lysozyme inhibition assay (EnzCheck, fluorescein-labeled Micrococcus lysodeikticus); format: biochemical
Description: (§3) To test this hypothesis, the antibacterial activity of both human and chicken lysozyme, in the presence or absence of GST-Tp17, was assayed using an EnzCheck® lysozyme assay kit (Molecular Probes, Eugene, Oreg.). The assay comprises the use of Fluorescein-labeled Micrococcus lysodeikticus bacterial cells as a fluorescent substrate of lysozyme. In this Gram positive bacterium, the peptidoglycan layer is directly accessible to lysozyme, and has been Fluorescein-labeled such that fluorescence is naturally quenched. Upon lysozyme hydrolysis, quenching is relieved and fluorescein is released in a quantity that is proportional to lysozyme activity. The following experimental protocol was used.
(§4) A typical 100 μl reaction consisted of 25 μl of lysozyme solution (10 units for chicken lysozyme or 50 units for human lysozyme, dissolved in deionized water), 25 μl of the test protein solution and 50 μl of a suspension of fluorescein-labeled Micrococcus lysodeikticus (50 μg/ml). The reaction was incubated for 45 minutes at 37° C. and the fluorescence was measured (λexc.=485 nm; λemi.=520 nm) using a fluorescence multi-well plate reader model FLx800 (Bio TEK instruments, Winoosky, Vt.) equipped with KC junior data acquisition software (Bio TEK Instruments, Winoosky, Vt.). Each experimental point was expressed as the mean and standard deviation corresponding to the reading of three independent wells. Wells containing 50 μl of deoinized water and 50 μl of Fluorescein-labeled Micrococcus lysodeikticus suspension were used as a blank. Two fold serial dilutions of test protein were used to vary the concentration of the test protein from 83.5 to 1.3 μg/well.

chicken lysozyme [4] = target: T2, chicken lysozyme; assay: as above; format: biochemical
Description: as §3, §4

[5] = test system: Micrococcus lysodeikticus; conditions: pH 6.24, 25° C., Micrococcus lysodeikticus suspension; cited from earlier work
lysozyme [6] = target: T1, lysozyme; assay: Lysozyme binding assay on spotted β-APP fragments with POD-labeled human lysozyme; conditions: 10 μg protein spotted; POD-huLYS diluted 1/1000
Description: To test whether the β-APP protein binds huLYS, we performed lysozyme binding assays using purified, recombinant forms of β-APP. Both sAPPα (product number: S9564) and sAPPα (302-612) (product number: S8065) were purchased from Sigma-Aldrich (Tres cantos, Madrid, Spain). 10 μg of each protein was spotted onto a Nytran membrane (Scleicher & Schuiell, Dassel, Germany). Non-specific adsorption sites were blocked by incubation for one hour in TBST-milk. After three washes with TBST, the membrane was incubated for one hour with horse radish peroxidase (POD)-labeled human lysozyme diluted 1/1000 in TBST-milk. Next, the membrane was washed three times, for 5 minutes each wash, with TBST. Staining was performed by adding 5 ml of POD chromogenic substrate (TMB, product number: T0565, Sigma). […] Moreover, the β-APP/huLYS protein complex likely serves as a diagnostic marker of Alzheimer's disease.

GST-Tp17 or Tp17-HIS = assay: Antibacterial activity of lysozymes with or without Tp17 (EnzCheck); format: biochemical, Treponema pallidum; conditions: 1 unit human lysozyme or 230 units rLysozyme; 10 μg GST-Tp17 or Tp17-HIS
Chain of GST-Tp17 or Tp17-HIS (P29722 23-156 limits assumed): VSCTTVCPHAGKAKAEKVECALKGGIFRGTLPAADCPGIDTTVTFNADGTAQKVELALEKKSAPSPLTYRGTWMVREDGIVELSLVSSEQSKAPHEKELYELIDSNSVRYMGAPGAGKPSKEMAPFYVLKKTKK
Description: In that context, we compared the antibacterial activity of human lysozyme (Ventria Bioscience, Sacramento, Calif., USA) and rLysozyme™ using the EnzCheck Lysozyme assay (E-22013; Molecular Probes, Eugene, Oreg.). We first determined that under the manufacturer's prescribed assay conditions, 1 unit of human lysozyme produced the same intensity of fluorescence as 230 units of rLysozyme™. Next, we measured the fluorescence intensity of either 1 unit of human lysozyme or 230 units of rLysozyme™, in the presence or absence of 10 μg of either GST-Tp17 or Tp17-HIS. […] As a consequence, rLysozyme™ represents a novel and promising antimicrobial drug that could eventually substitute for chicken lysozyme in various therapeutic preparations intended for human and animal use. Additionally, it can be used as an antiseptic and/or as a food preservative.

[7] = test system: anti-T. pallidum antibodies in human sera; assay: Syphilis ELISA (Bioelisa, second and third generation format) with added lysozyme
Description: Syphilis screening is routinely performed using enzyme-linked immunosorbent assays (ELISA) kits. These kits detect the binding of anti-syphilis antibodies to T. pallidum antigens immobilized in the wells of a microtiter plate. Detection of the binding of anti-syphilis antibodies to the plate is normally carried out by means of either an enzyme-labeled antiserum directed against human Fc antibody chains (second generation kit) or an enzyme-labeled T. pallidum antigen (third generation kit).
All the reagents used in this study are provided by the commercial Bioelisa Syphilis 3.0 detection kit (Biokit S.A., Lliça d'Amunt, Spain). The protocol used is that recommended in the package insert of the kit. Briefly, serum or plasma samples are added to the wells of a microtiter plate. If antibodies specific for T. pallidum are present in the sample, they form stable complexes with the antigens on the well. After washing to remove the unbound material, a rabbit conjugate anti-human IgG and anti-human IgM labelled with horseradish peroxidase is added and, if the antigen/antibody complex is present, the conjugate binds to the complex. After a second wash, an enzyme substrate solution containing a chromogen is added. This solution develops a blue color if the sample is positive. The blue color changes to yellow after blocking the reaction with sulphuric acid. […]

[8] = test protein 83.5 to 1.3 μg/well

Molecule: GST-Tp17: recombinant fusion of glutathione S-transferase and Treponema pallidum 17 kDa antigen Tp17 (SEQ ID NO:29)
- binding to human lysozyme (lysozyme [1]): detected binding
- binding to chicken lysozyme (chicken lysozyme [2]): detected binding
- inhibition of acetyl muramidase activity of human lysozyme (lysozyme [3]; as little as 1.3 μg/well, 50 units human lysozyme): > 85%
- inhibition of acetyl muramidase activity of chicken lysozyme (chicken lysozyme [4]; as little as 1.3 μg/well, 10 units chicken lysozyme): > 85%

Molecule: recombinant human transgenic rice lysozyme: purified recombinant human lysozyme from transgenic rice (159-53LZ-90P; Ventria Bioscience)
- specific activity [5]: 187,000 units/mg protein

Molecule: sAPPα: longer recombinant fragment of β-APP derived from the APP695 isoform (Sigma S9564)
- binding of POD-labeled human lysozyme (huLYS) (lysozyme [6]): bound

B1: human lysozyme: human lysozyme (NP_000230); breast milk-derived in Example 8, recombinant (Ventria) in Examples 10 and 16 (protein, listed as Homo sapiens)
chain: KVFERCELARTLKRLGMDGYRGISLANWMCLAKWESGYNTRATNYNAGDRSTDYGIFQINSRYWCNDGKTPGAVNACHLSCSALLQDNIADAVACAKRVVRDPQGIRAWVAWRNRCQNRDVRQYVQGCGV
- susceptibility of antibacterial activity to inhibition by GST-Tp17 or Tp17-HIS (GST-Tp17 or Tp17-HIS): strongly inhibited
- increase in signal intensity ([7]; second generation format, lysozyme added to the plate at 2.86 μg/ml, syphilis-positive human sera): about 20%
- increase in signal intensity ([7]; third generation format, lysozyme in sample dilution buffer (10.8 μg/ml) and conjugate dilution buffer (1.08 μg/ml), 3 out of 4 sera): about 200%

B2: GST-Tp47: control protein, GST fusion of T. pallidum Tp47 antigen (protein)
chain: CGSSHHETHYGYATLSYADYWAGELGQSRDVLLAGNAEADRAGDLDAGMFDAVSRATHGHGAFRQQFQYAVEVLGEKVLSKQETEDSRGRKKWEYETDPSVTKMVRASASFQDLGEDGEIKFEAVEGAVALADRASSFMVDSEEYKITNVKVHGMKFVPVAVPHELKGIAKEKFHFVEDSRVTENTNGLKTMLTEDSFSARKVSSMESPHDLVVDTVGTGYHSRFGSDAEASVMLKRADGSELSHREFIDYVMNFNTVRYDYYGDDASYTNLMASYGTKHSADSWWKTGRVPRISCGINYGFDRFKGSGPGYYRLTLIANGYRDVVADVRFLPKYEGNIDIGLKGKVLTIGGADAETLMDAAVDVFADGQPKLVSDQAVSLGQNVLSADFTPGTEYTVEVRFKEFGSVRAKVVAQ
modifications: left off: a dimerising Fc or GST
notes: control protein, GST fusion of T. pallidum Tp47 antigen
- binding to human lysozyme (lysozyme [1]): No signal was detected
- binding to chicken lysozyme (chicken lysozyme [2]): No signal was detected
- inhibitory effect on human lysozyme acetyl muramidase activity (in words) (lysozyme [3]; [8]): did not exert any inhibitory effect
- inhibitory effect on chicken lysozyme acetyl muramidase activity (in words) (chicken lysozyme [4]; [8]): did not exert any inhibitory effect
